One assay addresses JNK1 (UniProt P45983 1-427). The assay is described as follows: ITC. (Isothermal titration calorimetry measures the heat released or taken up as one component is titrated into another.)
The next assay has as its target ERK2 (UniProt P28482 1-360). The assay is described as follows: fluorescence polarisation.
In assay [1] the target is p38α (unphosphorylated, recombinant) (UniProt Q16539 1-360). Put plainly: fluorescence polarisation.

The values that follow come from publication PMC6776472 (Biochemistry, 2018).

No end group written: not given here.

Chain of ERK2 (P28482 whole entry): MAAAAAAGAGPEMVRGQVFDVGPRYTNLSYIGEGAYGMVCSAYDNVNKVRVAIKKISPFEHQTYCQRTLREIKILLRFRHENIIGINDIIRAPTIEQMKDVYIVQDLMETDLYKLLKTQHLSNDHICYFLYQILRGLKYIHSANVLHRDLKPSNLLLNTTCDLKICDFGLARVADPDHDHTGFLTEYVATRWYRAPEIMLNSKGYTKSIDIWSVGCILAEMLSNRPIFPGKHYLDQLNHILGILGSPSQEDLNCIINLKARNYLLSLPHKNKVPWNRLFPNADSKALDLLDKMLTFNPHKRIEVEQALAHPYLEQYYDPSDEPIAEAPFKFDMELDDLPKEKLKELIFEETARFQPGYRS
Chain of p38α (unphosphorylated, recombinant) (Q16539 whole entry): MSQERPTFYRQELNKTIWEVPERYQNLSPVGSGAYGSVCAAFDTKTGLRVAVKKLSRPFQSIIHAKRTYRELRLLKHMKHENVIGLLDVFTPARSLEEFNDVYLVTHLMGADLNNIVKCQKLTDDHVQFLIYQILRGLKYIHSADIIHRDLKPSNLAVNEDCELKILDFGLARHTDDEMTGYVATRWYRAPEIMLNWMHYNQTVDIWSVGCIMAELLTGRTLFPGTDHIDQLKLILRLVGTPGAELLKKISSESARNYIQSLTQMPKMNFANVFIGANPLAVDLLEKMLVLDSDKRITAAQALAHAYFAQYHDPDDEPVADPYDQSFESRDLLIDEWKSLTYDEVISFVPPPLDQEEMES
Chain of JNK1 (P45983 whole entry): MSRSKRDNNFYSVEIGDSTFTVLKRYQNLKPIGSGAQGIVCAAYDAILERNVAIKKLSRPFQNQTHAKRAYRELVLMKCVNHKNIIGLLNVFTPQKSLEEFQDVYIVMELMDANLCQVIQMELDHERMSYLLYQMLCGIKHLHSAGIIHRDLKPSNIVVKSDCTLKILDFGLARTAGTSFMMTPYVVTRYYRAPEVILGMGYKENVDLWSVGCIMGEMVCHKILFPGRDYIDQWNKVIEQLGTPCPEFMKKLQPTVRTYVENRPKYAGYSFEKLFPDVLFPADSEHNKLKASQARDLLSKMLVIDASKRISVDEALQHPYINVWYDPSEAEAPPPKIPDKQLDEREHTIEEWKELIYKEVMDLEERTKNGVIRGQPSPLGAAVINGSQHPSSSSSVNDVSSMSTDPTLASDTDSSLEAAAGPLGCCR

B1: pepMKK6mb (designed binder)
chain: RDLEVVAATPTSLLISWDAPAVTVRYYRITYGETGGNSPVQEFTVPGSKSTATISGLKPGVDYTITVYAVTGRPGLKIPSKPISINYRTEI
A word on the Kd: it is the equilibrium constant for the complex coming apart. In turn, B1 registered a dissociation constant Kd in the assay with JNK1 above 100 µM.

{TAMRA}-GKKRNPGLKIPK [MKK6-derived 12-residue peptide, TAMRA-labeled]: the binding result with ERK2 is on record as “binds”. Besides, the equilibrium dissociation constant (Kd) in assay [1] came to 3.9 µM.
